The data set concerns the molecule itself. Description: SEC-MALS; purified proteins on a Superdex 200 10/300 column at 4 °C, flow 0.5 mL/min; MiniDAWN light scattering and Optilab dRI detectors.

B1: Human FAM92A1 BAR domain (residues 1-219), wild type (domain or fragment, UniProt A1XBS5 1-219, looked up)
chain: MMRRTLENRNAQTKQLQTAVSNVEKHFGELCQIFAAYVRKTARLRDKADLLVNEINAYAATETPHLKLGLMNFADEFAKLQDYRQAEVERLEAKVVEPLKTYGTIVKMKRDDLKATLTARNREAKQLTQLERTRQRNPSDRHVISQAETELQRAAMDASRTSRHLEETINNFERQKMKDIKTIFSEFITIEMLFHGKALEVYTAAYQNIQNIDEDEDLE
notes: FAM92A1 (CIBAR1), human, residues 1-219 cloned into the pHAT vector between SpeI and NsiI; residues 2-211 form the BAR domain in the crystal structure; Homodimer by crystal structure and SEC-MALS; The pHAT vector probably adds the His tag at the N-terminus (surmise); also called FAM92A1 N-terminal region; WT; source: E. coli BL21 (DE3), purified (Ni-NTA, gel filtration on Superdex 75)
B1: the “stoichiometry N” value came to 2.

As usually defined, the stoichiometry N is a count of units in the complex or per binding partner.

For the origin of these results see publication PMC11266426, “Membrane remodeling by FAM92A1 during brain development regulates neuronal morphology, synaptic function, and cognition” (Nature Communications, 2024).
